Earlier results on one substance are cited in paper PMC6978450.

In one series the target is IL-13Rα2 (Mus musculus) (UniProt O88786).
For the next series, the target named is IL-13Rα1 (Mus musculus) (UniProt O09030).
UniProt O09030, sequence (O09030 26-340): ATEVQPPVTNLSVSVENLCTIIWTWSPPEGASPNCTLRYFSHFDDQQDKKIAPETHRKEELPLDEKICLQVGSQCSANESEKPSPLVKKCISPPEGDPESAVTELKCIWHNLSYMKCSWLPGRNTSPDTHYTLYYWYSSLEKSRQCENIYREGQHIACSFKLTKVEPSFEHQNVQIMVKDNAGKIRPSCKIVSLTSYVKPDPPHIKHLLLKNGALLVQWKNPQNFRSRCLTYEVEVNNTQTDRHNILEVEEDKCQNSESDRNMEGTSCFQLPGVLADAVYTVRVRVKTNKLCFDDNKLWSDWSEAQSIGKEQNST

UniProt O88786, sequence (O88786 22-334): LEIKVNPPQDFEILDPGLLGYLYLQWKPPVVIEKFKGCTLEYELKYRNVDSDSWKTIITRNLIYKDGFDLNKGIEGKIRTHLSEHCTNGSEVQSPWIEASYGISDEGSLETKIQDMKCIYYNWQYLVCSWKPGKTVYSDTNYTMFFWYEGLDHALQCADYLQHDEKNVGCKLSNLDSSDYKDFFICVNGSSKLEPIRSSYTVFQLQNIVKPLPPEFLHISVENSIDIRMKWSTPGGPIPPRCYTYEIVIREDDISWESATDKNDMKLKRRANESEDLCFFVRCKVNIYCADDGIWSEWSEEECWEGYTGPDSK

With IL-13 (from UniProt P20109), the Kd was 0.44 nM with IL-13Rα2 (Mus musculus) and 30 nM in the series with IL-13Rα1 (Mus musculus).

Broadly, the Kd is the free concentration of one partner at which half of the binding sites on the other are occupied at equilibrium, for simple one-to-one binding.
